The experiment concerns the target Vasna-Cd4d3+4-bio (zebrafish). As to the kind of experiment: SPR; BIAcore; Vasna-Cd4d3+4-bio immobilised on a streptavidin-coated sensor chip at high and low levels, Cd4d3+4-bio as reference; Islr2-Cd4d3+4-6xHis injected in serial dilutions; HBS-EP buffer, 28 °C; 20 μl/min for equilibrium, 100 μl/min for kinetics (7, 14, 28 μM); purification of the Vasna bait before capture not given. On the technique in general: In SPR one partner is held on a chip, and binding of the other changes the refractive index at the surface.

What is called Kd is the equilibrium constant for the complex coming apart. Read a low Kd as tighter binding. One may read the half-life as the time in which the quantity being followed falls by half. High values mean slow decline, low ones rapid decline. The term koff denotes the first-order rate constant of dissociation. With “Islr2-Cd4d3+4-6xHis (domain or fragment)”, the Kd stood at 12.4 µM, the half-life worked out at 0.16 s and the koff turned out to be 4.3 s⁻¹.
